This assay addresses Calcineurin (CN) of HeLa cells, endogenous. In words: cell-based or functional assay.

Take GFP-LxVPc1 fusion protein: the percentage of cells with cytosolic NFATc2 staining after calcium ionophore was 77%.

GFP-VIVIT fusion protein: the percentage of cells with cytosolic NFATc2 staining after calcium ionophore stood at 92%.

Values taken from patent US20100081624A1, “SELECTIVE PEPTIDES THAT INHIBIT THE BIOLOGICAL ACTIVITY OF CALCINEURIN” (Consejo Superior de Investigaciones Cientficas, priority 2005, published 2010).
